These results are taken from patent US20220348652A1 (ANTAIMMU BIOMED, published 2022).

Where a chain is given by its changes, count along the chain named.

For this test, the target named is T1, human CD47 expressed on CHO-CD47 cells (human, UniProt Q08722 19-323).
T1 construct: whole, on cells; also called cellular CD47; full-length CD47
The experiment in a line: flow cytometry, IgG on CHO-CD47 cells. The method, then: The anti-CD47 scFvs were respectively expressed in their IgG formats in accordance with the procedure described in Materials and Methods. CHO cells expressing CD47 (CHO-CD47 cells) and wild-type CHO cells (CHO-WT cells) were respectively treated with anti-CD47 IgGs. After washing, the binding of the anti-CD47 IgGs was detected using a polyclonal APC-conjugated anti-human IgG antibody. Relative MFI was measured by flow cytometry. Antibody R23, a reference antibody constructed according to the sequences of ADI29341 disclosed in US20200181259A1, served as a positive control in this study.
For orientation: In flow cytometry, cells or beads pass a laser one at a time.

B1: CD47-26 IgG (antibody, V domains shown)
VH: EVQLVESGGGLVQPGGSLRLSCAASGFTITNFYIHWVRQAPGKGLEWVAKITPYNGDTHYADSVKGRFTISADTSKNTAYLQMNSLRAEDTAVYYCTRGGYAMDYWGQGTLVTVSS
VL: DIQMTQSPSSLSASVGDRVTITCRASQDVSNYVAWYQQKPGKAPKLLIYGTSRLYPGVPSRFSGSGSGTDFTLTISSLQPEDFATYYCQQHSSYPLTFGQGTKVEIKR
notes: IgG made in CHO cells; constant domains as for m19; also called antibody CD47-26
The EC50 is the midpoint of the concentration-response curve. Read a high EC50 as lower potency in that assay. For the molecule B1, the EC50 is 2.05 µg/mL.

B2: CD47-30 IgG (antibody, V domains shown)
VH: EVQLVESGGGLVQPGGSLRLSCAASGFTINNWWIHWVRQAPGKGLEWVAWIDPFNGDSDYADSVKGRFTISADTSKNTAYLQMNSLRAEDTAVYYCARGGFALDHWGQGTLVTVSS
VL: B1 VL with N31H, G50S, L96I
notes: IgG made in CHO cells; constant domains as for m19; also called antibody CD47-30
In turn, B2 came in with an EC50 of 2.67 µg/mL.
